Source: patent publication US20150284450A1, “COMBINATION THERAPIES USING ANTI-PSEUDOMONAS PSL AND PCRV BINDING MOLECULES” (priority 2012, published 2015)

What was measured:
[1] = target: rPcrV protein (recombinant Pseudomonas PcrV) (Pseudomonas aeruginosa); test: SPR on Bio-Rad ProteOn XPR36; antibody captured on GLC chip with anti-human IgG, rPcrV injected at multiple concentrations [table]
[2] = target: rPcrV protein (recombinant Pseudomonas PcrV) (Pseudomonas aeruginosa); test: SPR on Bio-Rad ProteOn XPR36; antibody captured on GLC chip with anti-human IgG, rPcrV injected at multiple concentrations
[3] = target: rPcrV protein (recombinant Pseudomonas PcrV) (Pseudomonas aeruginosa); test: Bio-Rad ProteOn XPR36; antibody captured by anti-human IgG on GLC chip, rPcrV injected

| Binder | Kd [1] | koff [1] | kon [1] | Kd [2] | koff [2] | kon [2] | fold increase in Kd over V2L2-GL [3] |
| --- | --- | --- | --- | --- | --- | --- | --- |
| V2L2-germlined mAb (V2L2-GL) (antibody, V domains shown) VH: EVQLLESGGGLVQPGGSLRLSCAASGFTFSSYAMNWVRQAPGKGLEWVSAITISGITAYYTDSVKGRFTISRDNSKNTLYLQMNSLRAEDTAVYYCAKEEFLPGTHYYYGMDVWGQGTTVTVSS VL: AIQMTQSPSSLSASVGDRVTITCRASQGIRNDLGWYQQKPGKAPKLVIYSASTLQSGVPSRFSGSGSGTDFTLSISSLQPDDFATYYCLQDYNYPWTFGQGTKVEIK | 0.143 nM | 0.000116 s⁻¹ | 808000 M⁻¹ s⁻¹ | 0.143 nM | 0.000116 s⁻¹ | 808000 M⁻¹ s⁻¹ | – |
| V2L2-MD (germlined lead optimized V2L2) (antibody, V domains shown) VH: EVQLLESGGGLVQPGGSLRLSCAASGFTFSSYAMNWVRQAPGKGLEWVSAITMSGITAYYTDDVKGRFTISRDNSKNTLYLQMNSLRAEDTAVYYCAKEEFLPGTHYYYGMDVWGQGTTVTVSS VL: AIQMTQSPSSLSASVGDRVTITCRASQGIRNDLGWYQQKPGKAPKLLIYSASTLQSGVPSRFSGSGSGTDFTLTISSLQPEDFATYYCLQDYNYPWTFGQGTKVEIK | 0.046 nM | 4.03e-05 s⁻¹ | 884000 M⁻¹ s⁻¹ | 0.0456 nM | 4.03e-05 s⁻¹ | 884000 M⁻¹ s⁻¹ | 2 to 3 fold |
